Measurements taken from the RNAGym collection of RNA variant scans (doi:10.1073/pnas.2313332121).
Variants at the floor of the assay were thinned out.

B1: TPR 5TU (parent)
chain: GGAUCUUCUCGAUCUAACAAAAAAGACAAAUCUGCCACAAAGCUUGAGAGCAUCUUCGGAUGCAGAGGCGGCAGCCUUCGGUGGCGCGAUAGCGCCAACGUUCUCAACUAUGACACGCAAAACGCGUGCUCCGUUGAAUGGAGUUUAUCAUG

Variants of: B1
Assay: polymerase ribozyme fitness, log enrichment relative to wild type (log ratio); higher = more active; in vitro selection for triplet polymerase activity
Method in brief: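 Streptavidin-bead capture of gel-excised extended constructs, followed by RT-PCR, closed a single triplicate in vitro selection round. That round began by annealing PCR-built, transcribed mutant libraries of each subunit of a heterodimeric triplet polymerase ribozyme with a biotinylated primer, the partner subunit and triplets, then incubating them frozen at −7 °C. After Illumina sequencing of inputs and outputs, genotypes needed ≥10 input reads and ≥1 read per output. Fitness is the base-2 logarithm of genotype enrichment over wild-type enrichment, using inverse-variance-weighted replicate averages.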

| Variant | polymerase ribozyme fitness (log ratio) |
| --- | --- |
| C8G A16C C93U A137G | ≤ -4.2 |
| C18U U78A G81U C87G U144A | ≤ -4.2 |
| U109A | -1.11 |
| A41U C54U | -0.75 |
| A16C A40C G80A G92U A113G U135C G140A | ≤ -4.2 |
| U55C G74U | ≤ -4.2 |
| G62A A115G A120G | -0.97 |
| C27G U44G A89C A142U | ≤ -4.2 |
| A29G U31C A52G C57U C85U C87A A150U | ≤ -4.2 |
| U4G C85U U134G U145G | -2.85 |
| A12G C36A U55G G71A C96G C116A U134G | ≤ -4.2 |
| G34A G88C A115C A137G | ≤ -4.2 |
| C8A C54U | -3.64 |
| A17U A21G A40G U55A A60G C95A U146C | -2.4 |
| G124A G133U U135C | -3.82 |
| A29U C32G C75U U77G G80A | ≤ -4.2 |
| C5G U44A G59A A121C A122G | ≤ -4.2 |
| U9G U33G G34U G92A C105G C132U U139C | ≤ -4.2 |
| A20G U148C | -1.93 |
| C35A G92A A107G | ≤ -4.2 |
| A22G C35A A107C | ≤ -4.2 |
| G50A G86C C99U U104G C116G | ≤ -4.2 |
| A49G C63U C85U | -0.955 |
| A41C C93A A97C | -3.96 |

| Variant | polymerase ribozyme fitness (log ratio) |
| --- | --- |
| G50C U53C G83A C95G | ≤ -4.2 |
| C57U C76U C129G | -3.51 |
| U7C U53A C85U | -3.46 |
| G50C C116A U144A C149G | ≤ -4.2 |
| C10G G11U C79G G92U A110G C123G U130G A138G U146A | ≤ -4.2 |
| A26U G59C U61A C75G A138C | ≤ -4.2 |
| A52C C63U C93A A107U C125U U146A | ≤ -4.2 |
| C32A G80U C96U A138U | ≤ -4.2 |
| C18G C57U G59A G80A G86U C108G C116U U145A C149G G152U | ≤ -4.2 |
| C76U A147U | 0.639 |
| G84A G126A | 0.571 |
| C54U G58A G94U | -0.705 |
| U53A C85A A89C | -3.89 |
| U4G A23U G68A U127A | ≤ -4.2 |
| G50A A73U C93G G100U A107G U109C A142C A150U | ≤ -4.2 |
| A22G A40G G42C C79A G94C | ≤ -4.2 |
| C35U A60C A98U A142G | -2.28 |
| A17U C108U | -3.48 |
| A29C C54U G84A A97U | ≤ -4.2 |
| A22U C57U | -0.0575 |
| G42A C69G C72G C96U G143A | ≤ -4.2 |
| U9A A16C C85A C87A | ≤ -4.2 |
| G11A A17C A20C A22U G46U C85U | -3.03 |
| G62C A64G G83C U102G C114U U127G | ≤ -4.2 |

| Variant | polymerase ribozyme fitness (log ratio) |
| --- | --- |
| G83C A121G | -0.25 |
| A40G C57G G58A G117C A119U | -1.96 |
| G58C A107C U130G A137G A147G | ≤ -4.2 |
| G11C C38U G65U A122U | ≤ -4.2 |
| C27G U33A U55A C87A A98C U104G U148A | ≤ -4.2 |
| U7A C32G A66C G68A C87A G128U G136C | ≤ -4.2 |
| G70A C105A C123A | ≤ -4.2 |
| C5A G34A | 0.15 |
| C14G A26U A28G C35A U56C C57U U90G | ≤ -4.2 |
| G42C U127G A150G | ≤ -4.2 |
| C14U G92C | -1.88 |
| C8G A39U G46U G68C C79U G83A U102A | ≤ -4.2 |
| C93G C105A U135A | ≤ -4.2 |
| A142U | -0.482 |
| U33G G94A | -3.04 |
| U56A C87U C131G | -3.21 |
| A12C C35U A39G G59A C85A C87U | ≤ -4.2 |
| A22G C38G C96U A110U U111A | ≤ -4.2 |
| C51A U55A G94A C125A | -3.04 |
| U9A C93A A142C | -3.81 |
| C36A A91U C93G C118A A137U | ≤ -4.2 |
| A12U A28G U55A C63U C96G G100A | ≤ -4.2 |
| U4G A37C G50U G59U G86U | -3.71 |
| C18U C38G A52G U101G | -1.69 |

| Variant | polymerase ribozyme fitness (log ratio) |
| --- | --- |
| A113G C118G | -1.86 |
| C87U A91U C96U | ≤ -4.2 |
| A29C G68A G92C G133A | ≤ -4.2 |
| A30C A60C | ≤ -4.2 |
| G46C G50U G84U A121C G124U | -3.31 |
| C5A C35A C38U G74U C87A U148A | ≤ -4.2 |
| A24C C125U | ≤ -4.2 |
| A73G C125U | -0.349 |
| C27G C43A C72U C93A C125G G133U G143A | ≤ -4.2 |
| G11U A30U C95U C99U | ≤ -4.2 |
| A60G C72U G143U | -3.39 |
| C14U A41U C69A C85U | ≤ -4.2 |
| U6G C93A A98G | -1.61 |
| U9A U78C G84U C99G A113U A115C G117U U135C U144A U148G | ≤ -4.2 |
| C36A G50A A64U A66C A98U U104A U109G U148G | ≤ -4.2 |
| C14U G65C C87G C96U C132U U139G | ≤ -4.2 |
| A20C U55A G71A C96U | -3.43 |
| U33A A52G C85A C95A U148C U151A | ≤ -4.2 |
| A16G A20C A22C C32G A66G C118G G126A C132A | ≤ -4.2 |
| C38G G143C C149U | ≤ -4.2 |
| A39U U56A C116U | -2.74 |
| C85U C108G G143A A150G | -3.95 |
| A17G C32U C35G G62C C75A | ≤ -4.2 |
| G58C C116U | 0.354 |

| Variant | polymerase ribozyme fitness (log ratio) |
| --- | --- |
| G70C G86C | ≤ -4.2 |
| U15C A40U G59C C85U | 1.15 |
| U7G A41U U53A C54U U56A C57A G71U C95A G112C | ≤ -4.2 |
| U102G C116U | -2.66 |
| A16G C85G G86U A89C A107G | ≤ -4.2 |
| A30G A41G A52G | -2.03 |
| G80A G92U A97G | -0.375 |
| U45A U56C C57A C63G C87G G88C | ≤ -4.2 |
| G11U C27G C35A C95U C131G G152U | -3.68 |
| C18G A41U A91G U148G | ≤ -4.2 |
| U15A A30G U78G C87G | ≤ -4.2 |
| A12U A37C U45A U55A C85U G92A | ≤ -4.2 |
| A91G C105U | -1.66 |
| A20U A30U A39U G62A G68A G140U | ≤ -4.2 |
| U6G C57A U102G | -1.76 |
| C63A C85U | -0.129 |
| U53A A91G U144G | -2.54 |
| C8G A23C A30U G59A C95A A119U G141C | ≤ -4.2 |
| A24U A39G U82A C95G U135A | -3.89 |
| G92U C95U A147G U148A | -3.45 |
| C10U G25C G46C G88U C95U A97U A142C | ≤ -4.2 |
| C38U A73G G86A A91U A97G A115C | ≤ -4.2 |
| U33C G141A | -2.97 |
| C38A G58A C95G G124C C125U | -1.11 |

| Variant | polymerase ribozyme fitness (log ratio) |
| --- | --- |
| U9G C75U A150G | ≤ -4.2 |
| A41U G141A A150G | -4.16 |
| U53A C85A A106G U144G | -2.88 |
| U61A C99U | -2.69 |
| C54U C93A | -2.6 |
| A17G A60G G84U C118A U146G | -2.3 |
| A60G A120G G128C A142G | -2.95 |
| A3U C57U C85A C118U C125A | -2.55 |
| A47G G83C C87G G112U A120C C125A G136U | ≤ -4.2 |
| A66U C85U U102C A107G G143C | ≤ -4.2 |
| U6G A12C C35G A60C C75G A110G | ≤ -4.2 |
| G58A C96G | -0.616 |
| A30C G42U C54U C63G G68A C93U A121G G140A | ≤ -4.2 |
| A19U C93U U148A | -3.95 |
| C35U U144G | 1.13 |
| C32G C72G C87G C114U U139A | ≤ -4.2 |
| A19U G34A C38U G59C C95A C116A | -4.19 |
| A17U C35U A66C C72U G80A C93A | ≤ -4.2 |
| C14U G46A U55G | -3.69 |
| G92A A106C | -3.04 |
| A16U A22U A23G A60U C95U C108U A119G C123U | ≤ -4.2 |
| A17G C85U | -1.27 |
| C27U A30C C87G G128A C131A U134C G141U | -4.13 |
| U61A G62A | -1.48 |

| Variant | polymerase ribozyme fitness (log ratio) |
| --- | --- |
| A21C A52C C57A G88A G92A A97U | ≤ -4.2 |
| C43U C54A C79U A91U A142U G143A | ≤ -4.2 |
| A40G U56A C99U | -2.66 |
| C76A A119U | -0.979 |
| A28G C57G G84A A98G C114U | ≤ -4.2 |
| A16C C96G G140U | ≤ -4.2 |
| C8U C87G G100C U139C C149G | ≤ -4.2 |
| C5A U53A C93U C125A G152A | -4.17 |
| A49G C87A G126A | ≤ -4.2 |
| C35G G94U A97U | -4.17 |
| U9C U82A G92U C116U U134G | ≤ -4.2 |
| C38U C54A C99U C132U | -2.38 |
| A37G A40G A41G C76U C87U C93G C125G | ≤ -4.2 |
| A97U U135G G140C | ≤ -4.2 |
| A22C A40U G81U C93A C99U C116A | -3.08 |
| C8G G11A A19C G50A C69A G70A C93U | ≤ -4.2 |
| U61A A66C A73U A91G | ≤ -4.2 |
| G62U G92C C96A A98U | -2.71 |
| G62C C93U | -3.83 |
| A17C A64C G83U | ≤ -4.2 |
| C8U A22U A40U A47C | ≤ -4.2 |
| C5A G11U A21C C54U C57A C87U | -1.42 |
| A40U G117C | -0.102 |
